How the values were obtained:
6×His-tagged AVR-Pia = 6×His-tagged AVR-Pia (Magnaporthe oryzae); assay: SPR; […] (single-cycle kinetics, […]; 25 °C; 20 mM Tris pH 8, 150 mM NaCl, 0.5 mM DTT; […]; conditions: both partners purified
6×His-tagged AVR1-CO39 = 6×His-tagged AVR1-CO39 (Magnaporthe oryzae); assay: as above; conditions: both partners purified
6×His-tagged AVR1-CO39 (Magnaporthe oryzae), sequence (F7J0N2 982-1116): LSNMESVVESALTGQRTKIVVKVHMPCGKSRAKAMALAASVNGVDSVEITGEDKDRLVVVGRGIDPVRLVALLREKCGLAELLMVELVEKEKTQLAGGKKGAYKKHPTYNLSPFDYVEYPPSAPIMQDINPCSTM

6×His-tagged AVR-Pia (Magnaporthe oryzae), sequence (F7J0N2 982-1116): as above

B1: MBP:RGA5_HMA (wild-type RGA5 HMA domain fused to the maltose-binding protein) (domain or fragment)
chain: SALTGQRTKIVVKVHMPCGKSRAKAMALAASVNGVDSVEITGEDKDRLVVVGRGIDPVRLVALLREKCGLAELLMVELVEKE
**Q.** Which results are given for B1?
**A.** Kd (6×His-tagged AVR-Pia): 7.2 µM; Kd (6×His-tagged AVR1-CO39): 4.9 µM

Source: PMC8938504 (Nature Communications, 2022)
